EC50 of the cAMP response (HTRF) of transfected CHO-K1 cells stimulated with rec-eCG for 30 min and t1/2 of the loss of cell surface receptor (anti-VSVG ELISA on cells) after rec-eCG treatment, 0-120 min data for one substance are collected here from PMC12384393.

In experiment [1] the target is equine lutropin hormone/choriogonadotropin receptor, wild type (equine LH/CGR-WT) (equine).
The target in experiment [2] is equine LH/CGR-N174Q (equine).
The target of experiment [3] is equine LH/CGR-N99Q (equine).
Experiment [4] concerns the target equine LH/CGR-N50Q (equine).
Experiment [5] concerns the target equine LH/CGR-N195Q (equine).
Experiment [6] deals with equine LH/CGR-N291Q (equine).
Experiment [7] addresses equine LH/CGR-N299Q (equine).
The target in experiment [8] is equine LH/CGR-N313Q (equine).
The target in experiment [9] is equine lutropin hormone/choriogonadotropin receptor, wild type (equine LH/CGR-WT) (equine). This is another data set of the same source.
For experiment [10], the target named is equine LH/CGR-N174Q (equine). The source holds these as a separate data set.
Experiment [11] addresses equine LH/CGR-N99Q (equine). The source holds these as a separate data set.
Experiment [12] deals with equine LH/CGR-N50Q (equine). The source holds these as a separate data set.
For experiment [13], the target named is equine LH/CGR-N195Q (equine). This is another data set of the same source.
Experiment [14] concerns the target equine LH/CGR-N291Q (equine). This is another data set of the same source.
The target of experiment [15] is equine LH/CGR-N299Q (equine). The source holds these as a separate data set.
For experiment [16], the target named is equine LH/CGR-N313Q (equine). This is another data set of the same source.

Consider “recombinant equine chorionic gonadotropin (rec-eCG) (from UniProt P08751 21-169; P01220 25-120) (ligand)”, for which the EC50 of the cAMP response (HTRF) of transfected CHO-K1 cells stimulated with rec-eCG for 30 min in [1] came out at 0.0237 µg/mL; in [2], 0.179 µg/mL; in experiment [3] it was 0.0241 µg/mL; in experiment [4], 0.0177 µg/mL; in [5] it was 0.136 µg/mL; in experiment [6], 0.0184 µg/mL. Moreover, the figures for the EC50 of the cAMP response (HTRF) of transfected CHO-K1 cells stimulated with rec-eCG for 30 min in experiment [7] and in experiment [8] were 0.0269 µg/mL and 0.0347 µg/mL, respectively. In addition, the t1/2 of the loss of cell surface receptor (anti-VSVG ELISA on cells) after rec-eCG treatment, 0-120 min in experiment [9] worked out at 5.6 min; in experiment [10], 3.3 min; in experiment [11] it was 5.2 min; in [12], 5.6 min; in [13], 31.4 min; in experiment [14], 14.3 min. For the same substance, the t1/2 of the loss of cell surface receptor (anti-VSVG ELISA on cells) after rec-eCG treatment, 0-120 min is 12.8 min in experiment [15] and 13.3 min in [16].
